Holding throughout (test): cell-based or functional assay
Test [1] has as its target µPlm mutant F587R (human) (UniProt P00747).
The target of test [2] is µPlm mutant F587D (human) (UniProt P00747).
Test [3] deals with µPlm mutant F587Q (human) (UniProt P00747).
Test [4] concerns the target µPlm mutant F587A (human) (UniProt P00747).
Test [5] deals with µPlm mutant F587M (human) (UniProt P00747).
Test [6] has as its target µPlm mutant F587V (human) (UniProt P00747).
The target in test [7] is wild-type microplasmin (WT µPlm), refolded from E. coli µPlg and activated with urokinase (human) (UniProt P00747).
In test [8] the target is µPlm mutant F587I (human) (UniProt P00747).
The target of test [9] is µPlm mutant F587N (human) (UniProt P00747).

B1: α2-antiplasmin (α2-AP), purified from human serum (protein)
chain: NQEQVSPLTLLKLGNQEPGGQTALKSPPGVCSRDPTPEQTHRLARAMMAFTADLFSLVAQTSTCPNLILSPLSVALALSHLALGAQNHTLQRLQQVLHAGSGPCLPHLLSRLCQDLGPGAFRLAARMYLQKGFPIKEDFLEQSEQLFGAKPVSLTGKQEDDLANINQWVKEATEGKIQEFLSGLPEDTVLLLLNAIHFQGFWRNKFDPSLTQRDSFHLDEQFTVPVEMMQARTYPLRWFLLEQPEIQVAHFPFKNNMSFVVLVPTHFEWNVSQVLANLSWDTLHPPLVWERPTKVRLPKLYLKHQMDLVATLSQLGLQELFQAPDLRGISEQSLVVSGVQHQSTLELSEVGVEAAAATSIAMSRMSLSSFSVNRPFLFFIFEDTTGLPLFVGSVRNPNPSAPRELKEQQDSPGNKDFLQSLKGFPRGDKLFGPDLKLVPPMEEDYPQFGSPK
For B1, the IC50 (nM) of α2-AP inhibition of µPlm amidolytic activity (S-2403) was 164 nM in test [1]; 106 nM in test [2]; 63.2 nM in [3]; 150 nM in test [4]; 77.6 nM in test [5]; 65.2 nM in [6]. The figures for the IC50 (nM) of α2-AP inhibition of µPlm amidolytic activity (S-2403) in [7], in test [8] and in [9] were 37.9 nM, 46.4 nM and 105 nM, respectively. In addition, the IC50 Fold Increase is 4.3 fold in test [1]; 2.8 fold in test [2]; 1.7 fold in [3]; 4 fold in test [4]; 2 fold in test [5]; 1.7 fold in test [6]. The values for the IC50 Fold Increase in test [7], in test [8] and in test [9] were 1 fold, 1.2 fold and 2.8 fold, respectively. In addition, the activity remaining at 2 times concentration of α2-AP (% activity remaining) in [4] is 50.
